B1: Putative E3 ubiquitin-protein ligase UNKL (Homo sapiens), Q9H9P5 (parent)
chain: MPSVSKAAAAALSGSPPQTEKPTHYRYLKEFRTEQCPLFSQHKCAQHRPFTCFHWHFLNQRRRRPLRRRDGTFNYSPDVYCSKYNEATGVCPDGDECPYLHRTTGDTERKYHLRYYKTGTCIHETDARGHCVKNGLHCAFAHGPLDLRPPVCDVRELQAQEALQNGQLGGGEGVPDLQPGVLASQAMIEKILSEDPRWQDANFVLGSYKTEQCPKPPRLCRQGYACPHYHNSRDRRRNPRRFQYRSTPCPSVKHGDEWGEPSRCDGGDGCQYCHSRTEQQFHPESTKCNDMRQTGYCPRGPFCAFAHVEKSLGMVNEWGCHDLHLTSPSSTGSGQPGNAKRRDSPAEGGPRGSEQDSKQNHLAVFAAVHPPAPSVSSSVASSLASSAGSGSSSPTALPAPPARALPLGPASSTVEAVLGSALDLHLSNVNIASLEKDLEEQDGHDLGAAGPRSLAGSAPVAIPGSLPRAPSLHSPSSASTSPLGSLSQPLPGPVGSSAMTPPQQPPPLRSEPGTLGSAASSYSPLGLNGVPGSIWDFVSGSFSPSPSPILSAGPPSSSSASPNGAELARVRRQLDEAKRKIRQWEESWQQVKQVCDAWQREAQEAKERARVADSDRQLALQKKEEVEAQVIFQLRAKQCVACRERAHGAVLRPCQHHILCEPCAATAPECPYCKGQPLQW

Variants of: B1
Details: with ubi4p_yeast UBI4, P0CG63
Chain of ubi4p_yeast UBI4, P0CG63 (P0CG63 whole entry): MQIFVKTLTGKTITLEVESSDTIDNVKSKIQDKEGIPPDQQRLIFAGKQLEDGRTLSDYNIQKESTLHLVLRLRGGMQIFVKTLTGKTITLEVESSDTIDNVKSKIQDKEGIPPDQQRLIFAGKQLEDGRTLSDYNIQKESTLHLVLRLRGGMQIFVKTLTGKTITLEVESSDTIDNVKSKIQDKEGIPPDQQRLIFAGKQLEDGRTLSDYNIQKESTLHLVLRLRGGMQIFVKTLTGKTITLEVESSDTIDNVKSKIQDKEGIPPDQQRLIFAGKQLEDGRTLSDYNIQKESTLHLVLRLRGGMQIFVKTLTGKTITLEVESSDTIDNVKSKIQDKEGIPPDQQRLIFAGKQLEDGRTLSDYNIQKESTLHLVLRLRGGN

Row | effect of a mutation on the interaction | Variant
1 | decreasing interaction | C670A
2 | decreasing interaction | C639A

Source: IntAct's records for PubMed 20148946
